Test [1] concerns the target prostate specific antigen (PSA) (human) (UniProt P07288). Put plainly: SPR, Biacore 3000, PSA amine-coupled on CM4 chip, antibody in flow at 12.5-100 nM. (Surface plasmon resonance follows binding to a sensor surface in real time, without labels.)
Test [2] shares this target. Put plainly: SPR, Biacore 3000, PSA amine-coupled on CM4 chip, antibody in flow; dissociation followed 8 h.
For test [3] the target is unchanged. Put plainly: SPR, Biacore 3000, PSA amine-coupled on CM4 chip, antibody in flow.

Where “and” joins values, the source holds several entries; their conditions need not be identical. Equal entries are not always repeated.

Chain of prostate specific antigen (PSA) (human) (P07288 25-261 limits assumed): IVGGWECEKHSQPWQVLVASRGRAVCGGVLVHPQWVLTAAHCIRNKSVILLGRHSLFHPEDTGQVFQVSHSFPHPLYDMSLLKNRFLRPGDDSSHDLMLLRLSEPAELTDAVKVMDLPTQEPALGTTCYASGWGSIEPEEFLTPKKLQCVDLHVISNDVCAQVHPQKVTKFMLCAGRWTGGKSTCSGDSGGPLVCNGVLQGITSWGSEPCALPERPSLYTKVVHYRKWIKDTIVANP

m5A10-DFO (antibody): the kon (as a rule, the rate constant with which the complex forms) in test [1] amounted to 290000 M⁻¹ s⁻¹. The koff (in general, a measure of how fast the partners let go of each other) in test [2] stood at 6.6e-06 s⁻¹. Besides, in test [3], the Kd (usually the concentration at which binding is half-saturated) is 0.02 nM.

Turning to m5A10-DOTA (antibody), the kon in test [1] is 280000 M⁻¹ s⁻¹. Moreover, in test [2], the koff was 6.3e-06 s⁻¹. In test [3], this substance returned a Kd of 0.02 nM.

Consider m5A10-DTPA (antibody), for which, in test [1], the kon was 270000 M⁻¹ s⁻¹. In test [2], this substance had a koff of 6.3e-06 s⁻¹. The substance further returned a dissociation constant Kd in test [3] of 0.02 nM.

On to murine 5A10 monoclonal antibody (m5A10), for which the kon in test [1] is 290000 M⁻¹ s⁻¹ and 250000 M⁻¹ s⁻¹. In test [2], the koff is 6.3e-06 s⁻¹ and 5.4e-06 s⁻¹. In test [3], this substance yielded a Kd of 0.02 nM.

The record behind these values is patent publication US20180273634A1.
